T1: FcγRIIb extracellular domain with C-terminal His tag (human, UniProt P31994 43-217)
T1 construct: extracellular domain; also called FcgRIIb; 2b; not shown: His tag attached to the C terminus
T1 sequence (looked up): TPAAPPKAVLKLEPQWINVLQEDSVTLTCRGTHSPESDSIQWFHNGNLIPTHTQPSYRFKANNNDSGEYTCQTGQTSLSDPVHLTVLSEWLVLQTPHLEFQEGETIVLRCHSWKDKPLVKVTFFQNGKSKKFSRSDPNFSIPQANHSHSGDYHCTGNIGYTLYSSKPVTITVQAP

B1: GpH7-A5/GpH7-B3 variant N325_06M/GpL16-k0 (antibody, human IgG1, kappa)
heavy 1: not shown
heavy 2: not shown
light: DIVMTQSPLSLPVTPGEPASISCQASESLVHSNRNTYLHWYLQKPGQSPQLLIYKVSNRFSGVPDRFSGSGSGTDFTLKISRVEAEDVGVYYCSQNTHVPPTFGQGTKVEIERTVAAPSVFIFPPSDEQLKSGTASVVCLLNNFYPREAKVQWKVDNALQSGNSQESVTEQDSKDSTYSLSSTLTLSKADYEKHKVYACEVTHQGLSSPVTKSFNRGEC
notes: Heterodimerized IgG1; alteration in one H chain only; also called He Ab
B2: GpH7-A5/GpH7-B3 variant N325_13S/GpL16-k0 (antibody, human IgG1, kappa)
heavy 1: not shown
heavy 2: not shown
light: B1 light
notes: as for B1
B3: GpH7-A5/GpH7-B3 variant L328_05P/GpL16-k0 (antibody, human IgG1, kappa)
heavy 1: not shown
heavy 2: not shown
light: B1 light
notes: as for B1
B4: GpH7-A5/GpH7-B3 variant N325_19Q/GpL16-k0 (antibody, human IgG1, kappa)
heavy 1: not shown
heavy 2: not shown
light: B1 light
notes: as for B1
B5: GpH7-A5/GpH7-B3 variant N325_02A/GpL16-k0 (antibody, human IgG1, kappa)
heavy 1: not shown
heavy 2: not shown
light: B1 light
notes: as for B1
B6: GpH7-A5/GpH7-B3 variant N325_07I/GpL16-k0 (antibody, human IgG1, kappa)
heavy 1: not shown
heavy 2: not shown
light: B1 light
notes: as for B1
B7: GpH7-A5/GpH7-B3 variant Y296_14T/GpL16-k0 (antibody, human IgG1, kappa)
heavy 1: not shown
heavy 2: not shown
light: B1 light
notes: as for B1
B8: GpH7-A5/GpH7-B3 variant P271_09D/GpL16-k0 (antibody, human IgG1, kappa)
heavy 1: not shown
heavy 2: not shown
light: B1 light
notes: as for B1
B9: GpH7-A5/GpH7-B3 variant N325_15Y/GpL16-k0 (antibody, human IgG1, kappa)
heavy 1: not shown
heavy 2: not shown
light: B1 light
notes: as for B1
B10: GpH7-A5/GpH7-B3 variant N325_08L/GpL16-k0 (antibody, human IgG1, kappa)
heavy 1: not shown
heavy 2: not shown
light: B1 light
notes: as for B1
B11: GpH7-A5/GpH7-B3 variant Y296_11K/GpL16-k0 (antibody, human IgG1, kappa)
heavy 1: not shown
heavy 2: not shown
light: B1 light
notes: as for B1
B12: GpH7-A5/GpH7-B3 variant N325_11K/GpL16-k0 (antibody, human IgG1, kappa)
heavy 1: not shown
heavy 2: not shown
light: B1 light
notes: as for B1
B13: GpH7-A5/GpH7-B3 variant Y296_13S/GpL16-k0 (antibody, human IgG1, kappa)
heavy 1: not shown
heavy 2: not shown
light: B1 light
notes: as for B1
B14: GpH7-A5/GpH7-B3 variant S324_05P/GpL16-k0 (antibody, human IgG1, kappa)
heavy 1: not shown
heavy 2: not shown
light: B1 light
notes: as for B1
B15: GpH7-A5/GpH7-B3 variant N325_14T/GpL16-k0 (antibody, human IgG1, kappa)
heavy 1: not shown
heavy 2: not shown
light: B1 light
notes: as for B1

Target: T1, FcγRIIb extracellular domain with …
Assay: SPR (Biacore), relative binding
Procedure: (§1) Analysis of interaction between objective antibody and the FcγR was carried out using Biacore T100 (GE Healthcare). HBS-EP+ (GE Healthcare) was used as the running buffer, and the measurement temperature was set to 25° C. Chips produced by immobilizing the antigen peptide by the amine coupling method to a Series S Sencor Chip CM5 (GE Healthcare), or alternatively, chips produced by allowing preliminarily biotinylated antigen peptides to interact with and immobilize onto a Series S Sensor Chip SA (certified) (GE Healthcare) were used. Antibodies of interest were captured onto an antigen peptide-immobilized chip, and allowed to interact to each FcγR diluted with running buffer. To regenerate and repeatedly use the chip, the antibodies captured on the chip were washed off by reacting 10 mM glycine-HCl, pH 1.5.
(§2) The FcγR-binding activity of each antibody was assessed primarily using as an indicator the FcγR-binding activity and dissociation constant for FcγR.

| He/Con_2b (IIb binding) | Binder |
| --- | --- |
| 217 % of GpH7-A5/GpH7-B3/GpL16-k0 (=100) | B1 |
| 177 % of GpH7-A5/GpH7-B3/GpL16-k0 (=100) | B2 |
| 65.1 % of GpH7-A5/GpH7-B3/GpL16-k0 (=100) | B3 |
| 69.1 % of GpH7-A5/GpH7-B3/GpL16-k0 (=100) | B4 |
| 64.4 % of GpH7-A5/GpH7-B3/GpL16-k0 (=100) | B5 |
| 171 % of GpH7-A5/GpH7-B3/GpL16-k0 (=100) | B6 |
| 88.2 % of GpH7-A5/GpH7-B3/GpL16-k0 (=100) | B7 |
| 120 % of GpH7-A5/GpH7-B3/GpL16-k0 (=100) | B8 |
| 99.5 % of GpH7-A5/GpH7-B3/GpL16-k0 (=100) | B9 |
| 197 % of GpH7-A5/GpH7-B3/GpL16-k0 (=100) | B10 |
| 72.8 % of GpH7-A5/GpH7-B3/GpL16-k0 (=100) | B11 |
| 10.4 % of GpH7-A5/GpH7-B3/GpL16-k0 (=100) | B12 |
| 86.3 % of GpH7-A5/GpH7-B3/GpL16-k0 (=100) | B13 |
| 94.7 % of GpH7-A5/GpH7-B3/GpL16-k0 (=100) | B14 |
| 91.6 % of GpH7-A5/GpH7-B3/GpL16-k0 (=100) | B15 |

Target: T2, FcγRIIIa extracellular domain with C-terminal His tag (human, UniProt P08637 17-208)
T2 construct: extracellular domain; also called FcgRIIIa; 3a; not shown: His tag attached to the C terminus
T2 sequence (P08637 17-208): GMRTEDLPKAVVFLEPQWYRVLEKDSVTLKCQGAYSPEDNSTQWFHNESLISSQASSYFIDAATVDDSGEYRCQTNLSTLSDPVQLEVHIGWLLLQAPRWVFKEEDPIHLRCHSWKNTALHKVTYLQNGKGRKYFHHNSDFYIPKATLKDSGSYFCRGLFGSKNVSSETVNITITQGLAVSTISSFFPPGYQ
Assay: SPR (Biacore), relative binding
Procedure: as §1, §2

| He/Con_3a (IIIa binding) | Binder |
| --- | --- |
| 31.4 % of GpH7-A5/GpH7-B3/GpL16-k0 (=100) | B1 |
| 65.1 % of GpH7-A5/GpH7-B3/GpL16-k0 (=100) | B2 |
| 40.5 % of GpH7-A5/GpH7-B3/GpL16-k0 (=100) | B3 |
| 31.6 % of GpH7-A5/GpH7-B3/GpL16-k0 (=100) | B4 |
| 30.5 % of GpH7-A5/GpH7-B3/GpL16-k0 (=100) | B5 |
| 28.7 % of GpH7-A5/GpH7-B3/GpL16-k0 (=100) | B6 |
| 64.5 % of GpH7-A5/GpH7-B3/GpL16-k0 (=100) | B7 |
| 93.1 % of GpH7-A5/GpH7-B3/GpL16-k0 (=100) | B8 |
| 29.5 % of GpH7-A5/GpH7-B3/GpL16-k0 (=100) | B9 |
| 33.3 % of GpH7-A5/GpH7-B3/GpL16-k0 (=100) | B10 |
| 56.7 % of GpH7-A5/GpH7-B3/GpL16-k0 (=100) | B11 |
| 5.2 % of GpH7-A5/GpH7-B3/GpL16-k0 (=100) | B12 |
| 61.8 % of GpH7-A5/GpH7-B3/GpL16-k0 (=100) | B13 |
| 65.5 % of GpH7-A5/GpH7-B3/GpL16-k0 (=100) | B14 |
| 39.4 % of GpH7-A5/GpH7-B3/GpL16-k0 (=100) | B15 |

Target: T2, FcγRIIIa extracellular domain with …
Assay: SPR (Biacore); He/Con_3a divided by He/Con_2b (reference: binding to FcγRIIb)
Procedure: as §1, §2

| He_3a/2b (IIIa/IIb) [ratio] | Binder |
| --- | --- |
| 0.14 | B1 |
| 0.37 | B2 |
| 0.62 | B3 |
| 0.46 | B4 |
| 0.47 | B5 |
| 0.17 | B6 |
| 0.73 | B7 |
| 0.77 | B8 |
| 0.3 | B9 |
| 0.17 | B10 |
| 0.78 | B11 |
| 0.5 | B12 |
| 0.72 | B13 |
| 0.69 | B14 |
| 0.43 | B15 |
